Where no end group is shown, it is not given here. scaffold 1571 = not defined here
What follows are binders tested against Norovirus surrogate virus-like particle, type GII.4 Minerva strain (human Norovirus GII.4 Minerva strain) (assay: direct ELISA on purified GII.4 nVLP).

| Binder | Kd [nM] |
| --- | --- |
| SWARSNNKRSKAFNLGWGSC(scaffold 1571) (designed binder, reading uncertain; also: two peptides coupled by Cys to scaffold 1571 (dimer)) [nVLP78-78-1571] | 5 |
| RWVRVKLRSHTKLNRYIGSC(scaffold 1571) (designed binder, reading uncertain; also: two peptides coupled by Cys to scaffold 1571 (dimer)) [nVLP94-94-1571] | 1 |
| RWHRVKLRSHTELNRYIGSC(scaffold 1571) (designed binder, reading uncertain; also: two peptides coupled by Cys to scaffold 1571 (dimer)) [nVLP92-92-1571] | 3 |
| AWARSNNSRSKAFNLGWGSC(scaffold 1571) (designed binder, reading uncertain; also: two peptides coupled by Cys to scaffold 1571 (dimer)) [nVLP81-81-1571] | 3 |
| VWARKNNKRKKDFNAGWGSC(scaffold 1571) (designed binder, reading uncertain; also: two peptides coupled by Cys to scaffold 1571 (dimer)) [nVLP53-53-1571] | 1 |
| VWARKNNSRSKDFNAGWGSC(scaffold 1571) (designed binder, reading uncertain; also: two peptides coupled by Cys to scaffold 1571 (dimer)) [nVLP55-55-1571] | 9 |
| RWVRVKLRSHTELNRYIGSC(scaffold 1571) (designed binder, reading uncertain; also: two peptides coupled by Cys to scaffold 1571 (dimer)) [nVLP93-93-1571] | 4 |
| DWARKNNKRKMNFNLGWGSC(scaffold 1571) (designed binder, reading uncertain; also: two peptides coupled by Cys to scaffold 1571 (dimer)) [nVLP60-60-1571] | 2 |

These binders were tested against Norovirus surrogate virus-like particle, type GII.4 Minerva strain (human Norovirus GII.4 Minerva strain) (assay: SPR, unpurified peptide against nVLP GII.4).

| Binder | % Stability [%] | Avg Binding (Spot 1/2) | koff [s⁻¹] |
| --- | --- | --- | --- |
| RWVRVKLRSHTKLNRYIGSC [Mut Peptide-94] | 63 | 358 | 0.00294 |
| DWARKNNKRKMNFNLGWGSC [Mut Peptide-60] | 44 | 134 | 0.00487 |
| RWVRVKLRSHTELNRYIGSC [Mut Peptide-93] | 60 | 274 | 0.00332 |
| VWARKNNKRKKDFNAGWGSC [Mut Peptide-53] | 51 | 189 | 0.00408 |
| RWHRVKLRSHTELNRYIGSC [Mut Peptide-92] | 57 | 230 | 0.00355 |
| SWARSNNKRSKAFNLGWGSC [Mut Peptide-78] | 46 | 169 | 0.00431 |
| AWARSNNSRSKAFNLGWGSC [Mut Peptide-81] | 45 | 128 | 0.00455 |

Each binder was assayed against GII.4 Sydney# Norovirus VLP (Norovirus GII.4 Sydney strain) (assay: capture of VLP from a dilute solution by the synbody).

| Binder | Enrichment Factor from 1 ng/µL solution |
| --- | --- |
| RWVRVKLRSHTKLNRYIGSC(scaffold 1571) (designed binder, reading uncertain; also: two peptides coupled by Cys to scaffold 1571 (dimer)) [nVLP94-94-1571] | 3 |
| RWVRVKLRSHTELNRYIGSC(scaffold 1571) (designed binder, reading uncertain; also: two peptides coupled by Cys to scaffold 1571 (dimer)) [nVLP93-93-1571] | 3 |

These binders were tested against Norovirus surrogate virus-like particle, type GII.4 Minerva strain (human Norovirus GII.4 Minerva strain) in the same assay as above.

| Binder | Enrichment Factor from 1 ng/µL solution |
| --- | --- |
| RWVRVKLRSHTKLNRYIGSC(scaffold 1571) (designed binder, reading uncertain; also: two peptides coupled by Cys to scaffold 1571 (dimer)) [nVLP94-94-1571] | 7 |
| RWHRVKLRSHTELNRYIGSC(scaffold 1571) (designed binder, reading uncertain; also: two peptides coupled by Cys to scaffold 1571 (dimer)) [nVLP92-92-1571] | 3 |
| RWVRVKLRSHTELNRYIGSC(scaffold 1571) (designed binder, reading uncertain; also: two peptides coupled by Cys to scaffold 1571 (dimer)) [nVLP93-93-1571] | 10 |
